Assay results from patent US20020099179A1.

Biological target: human CD4 antigen (human) (UniProt P01730)
Experiment: competition with F1-OKT4A tracer on HPB-ALL cells, flow cytometry

Row | Log conc. competitor (pM) at 50% inhibition | Substance
1 | 2.9 log pM | chimeric OKT4A (chimeric light chain and chimeric heavy chain) (antibody)
2 | 2.4 log pM | murine OKT4A (antibody)
